Measured values: US10799462B2, “Peptide-polypeptide co-assembled nanoparticles for drug delivery” (B. G. Negev Technologies and Applications Ltd., at …, priority 2014, dated 2020)

How the values were obtained:
Saos2 cells = assay: XTT cell viability (cytotoxicity); assay type: cell-based; conditions: Homo sapiens, SAOS-2; Saos2 cultures; results not shown
Procedure: The cytotoxicity of coated nanoparticles was assessed by monitoring the viability of Saos2 cells in presence of the NPs. All cell cultured were carried in air supplemented with 5% CO2 at 37° C. In 24 wells plate, 3*10^4 cells/well were seeded, in DMEM complete medium and cultured for 4 h. The cells were supplemented with different concentrations of LND-NPs, control NPs, or free LND and cultured overnight. Cells viability was determined by XTT assay following the manufacturer instructions (Life Technologies, California, USA). The XTT solution was added to the wells and cells were incubated for 4 hr after which the absorbance of the samples was measured at 490 nm, by a microplate-reader (BioTek instruments, Winoosky, Vt.). Cells viability is reported as percentage compared to untreated cultured cells.

[1] = Dynamic light scattering (DLS) particle radius; assay type: physicochemical; conditions: for Rh* (most common radius measured at 90° using DLS): γ-PGA alone or peptide/γ-PGA NPs 1:1 w/w, n = 9; for Rh: n = 4
Procedure: (§1) NPs diameter was measured by dynamic light scattering (DLS) (CGS-3 LSE-5003, ALV, Langen, Germany) at different angles of the detector (90, 60 and 30 degrees) and by Small angle X-ray scattering (SAXS) (SAXLAB's GANESHA 300 XL, Skovlunde, Denmark) Sealed Tube Generator: Cu-Ka 0.154 nm (Genix 3D) equipped with a 2D detector (Pilatus 300k). Surface charge was measured by Zetasizer (Zetasizer Nano ZS, Malvern, Worcestershire, UK) and subsequently the data was analyzed using the Smoluchowski model.

[2] = Zeta potential / surface charge by Zetasizer (Smoluchowski model); assay type: physicochemical; conditions: for ξ zeta potential: n = 4
Procedure: as §1

[3] = Circular dichroism (CD) secondary structure; assay type: physicochemical; conditions: for change of CD pattern on mixing with γ-PGA: peptide:γ-PGA 0.25:0.25 mg/ml
Procedure: CD measurements were performed to characterize secondary structure of peptides in the NPs solution. Spectra in the range of 190-260 nm were recorded at room temperature on CD spectropolarimeter (J-715, Jasco, Tokyo, Japan), using a 1-mm quartz cuvette.

[4] = γ-PGA alone or peptide/γ-PGA NPs 1:1 w/w, n = 9
[5] = γ-PGA/PFK NPs coated with the peptide, coating solution 0.1 mg/ml
[6] = γ-PGA/PFK NPs coated with the peptide, coating solution 0.5 mg/ml
[7] = NPs coated with PFK 0.1 mg/ml, single or repeated addition
[8] = PFK alone or PFK/γ-PGA NPs at different PFK:γ-PGA weight ratios, n = 3

## O=C(O)c1nn(Cc2ccc(Cl)cc2Cl)c2ccccc12 [free LND, Lonidamine]
Saos2 cells
  IC50: 1.3 mM

## FK(FK)5F (FKFKFKFKFKFKF) [free termini version of the amphiphilic peptide]
[1]
  Rh* (most common radius measured at 90° using DLS): 7.41 ± 1.7 nm
[2]; [4]
  ζ zeta potential: −43.71 ± 9.2 mV
[3]
  change of CD pattern on mixing with γ-PGA: most pronounced shift to β-sheet structure

## KFFFKKFFKFFKK [rFK, scrambled order control of FK]
[1]
  Rh* (most common radius measured at 90° using DLS): 6.45 ± 1.2 nm
[2]; [4]
  ζ zeta potential: −38.78 ± 3.92 mV
[3]
  change of CD pattern on mixing with γ-PGA: primarily the Phe-Phe side chain type of absorption

## KFFPKKPFKFFKK [rPFK, scrambled order control of PFK]
[1]
  Rh* (most common radius measured at 90° using DLS): 9.57 ± 6 nm
[1]; [5]
  Rh: 11.04 ± 7.77 nm
[1]; [6]
  Rh: 9.72 ± 1.03 nm
[2]; [4]
  ζ zeta potential: −25.26 ± 8.79 mV
[2]; [5]
  ξ zeta potential: −37.26 ± 7.03 mV
[2]; [6]
  ξ zeta potential: −36.0 ± 2.69 mV
[3]
  change of CD pattern on mixing with γ-PGA: almost no change in its CD pattern

## PK(FK)5P (PKFKFKFKFKFKP) [PFK, proline capped amphiphilic cationic 13-residue peptide]
[1]; [7]
  Rh: 9.8 ± 0.23 nm
[1]; [8]
  Radius (Rh, DLS at 90°): Non spherical NPs
[1]
  Rh* (most common radius measured at 90° using DLS): 11.4 ± 2 nm
[1]; [5]
  Rh: 9.8 ± 0.23 nm
[1]; [6]
  Rh: 52.2 ± 50.63 nm
[2]; [7]
  ξ zeta potential: −33.52 ± 3.11 mV
[2]; [8]
  ζ zeta potential: 11.6 ± 5 mV
[2]; [4]
  ζ zeta potential: −49.3 ± 2 mV
[2]; [5]
  ξ zeta potential: −33.52 ± 3.11 mV
[2]; [6]
  ξ zeta potential: −35.42 ± 4.5 mV
[3]; PFK alone or 1:1 w/w with γ-PGA
  θ215/θ203 (β-sheet relative to unfolded) as function of pH: steep increase in θ215/θ203 value at pH˜8
[3]
  change of CD pattern on mixing with γ-PGA: most pronounced shift to β-sheet structure
